Experimental data: article PMC10329638

Target: rat ASIC3 wild type (rat) (UniProt O35240)
UniProt O35240, sequence (O35240 whole entry): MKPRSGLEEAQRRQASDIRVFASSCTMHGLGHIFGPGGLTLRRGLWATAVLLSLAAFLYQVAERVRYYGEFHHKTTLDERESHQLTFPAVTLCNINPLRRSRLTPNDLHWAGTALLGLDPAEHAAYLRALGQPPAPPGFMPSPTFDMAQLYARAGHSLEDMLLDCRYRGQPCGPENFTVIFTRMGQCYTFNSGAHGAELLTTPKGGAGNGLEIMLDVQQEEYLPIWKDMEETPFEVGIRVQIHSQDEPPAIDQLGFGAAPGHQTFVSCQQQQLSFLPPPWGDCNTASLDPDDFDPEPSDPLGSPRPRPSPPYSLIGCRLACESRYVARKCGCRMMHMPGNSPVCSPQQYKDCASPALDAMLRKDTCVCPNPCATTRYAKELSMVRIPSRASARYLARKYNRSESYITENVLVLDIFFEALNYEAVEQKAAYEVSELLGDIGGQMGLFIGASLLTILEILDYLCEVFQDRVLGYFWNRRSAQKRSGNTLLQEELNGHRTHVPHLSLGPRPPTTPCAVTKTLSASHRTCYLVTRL

proton-gated currents of Xenopus oocytes co-expressing wild-type ASIC3 and mutant ASIC2a (two-electrode voltage clamp, pH 7.0 to 3): > 1 µA
Substance: rat ASIC2a-H72N (from UniProt Q62962-1 1-512) (natural protein)
